The results in this text go back to FireProtDB.

B1: Glutamate dehydrogenase, P96110 (parent)
chain: MPEKSLYEMAVEQFNRAASLMDLESDLAEVLRRPKRVLIVEFPVRMDDGHVEVFTGYRVQHNVARGPAKGGIRYHPDVTLDEVKALAFWMTWKTAVMNLPFGGGKGGVRVDPKKLSRNELERLSRRFFSEIQVIIGPYNDIPAPDVNTNADVMAWYMDTYSMNVGHTVLGIVTGKPVELGGSKGREEATGRGVKVCAGLAMDVLGIDPKKATVAVQGFGNVGQFAALLISQELGSKVVAVSDSRGGIYNPEGFDVEELIRYKKEHGTVVTYPKGERITNEELLELDVDILVPAALEGAIHAGNAERIKAKAVVEGANGPTTPEADEILSRRGILVVPDILANAGGVTVSYFEWVQDLQSFFWDLDQVRNALEKMMKGAFNDVMKVKEKYNVDMRTAAYILAIDRVAYATKKRGIYP
B2: E81Q|D148N, P95467 (parent)
chain: MKKALIASTALLLTAGVAAADVKISGYGRTGVIYYENDSDVNESRVQSRLRMNIDASSSTDSGVDFGARFRLQWDQGEEGEAQTNAGKLWVSAQGFTVEVGNVDTAFASNGLIYETGLGSYDRSVGFSAVTGAFFAYDSNGYGIDEVDRVGIRALYTLGDLTLQASYVDPDQSGTVIGVEEEFGFSVDYTWNERLELSAAAAFNGAGIDGNDIYFLGARYAVMDNARIGLNFVDAGDEEDGYDGKTIALYGDYTLADGRTNLEAYIANNDRDSNETDNAFGIGVNYDLGGARLGASLQRDYAENVTADFGVRFEF
B3: Beta-lactoglobulin, P02754 (parent)
chain: MKCLLLALALTCGAQALIVTQTMKGLDIQKVAGTWYSLAMAASDISLLDAQSAPLRVYVEELKPTPEGDLEILLQKWENGECAQKKIIAEKTKIPAVFKIDALNENKVLVLDTDYKKYLLFCMENSAEPEQSLACQCLVRTPEVDDEALEKFDKALKALPMHIRLSFNPTQLEEQCHI
B4: Acylphosphatase-1, P41500 (parent)
chain: MSMAEGDTLISVDYEIFGKVQGVFFRKYTQAEGKKLGLVGWVQNTDQGTVQGQLQGPASKVRHMQEWLETKGSPKSHIDRASFHNEKVIVKLDYTDFQIVK

Variants of B1 are the subject of the first series. Conditions: Thermotoga maritima (strain ATCC 43589 / DSM 3109 / JCM 10099 / NBRC 100826 / MSB8); pH 7.4; Thermal; DSC; Sodium phosphate 20 mM; reversible: no; structure 1B26; whole UniProt chain shown.
For the variant MPEKSLYEMAVEQFNRAASLMDLESDLAEVLRRPKRVLIVEFPVRMDDGHVEVFTGYRVQHNVARGPAKGGIRYHPDVTLDEVKALAFWMTWKTAVMNLPFGGGKGGVRVDPKKLSRRELERLSRRFFREIQVIIGPYNDIPAPDVNTNADVMAWYMDEYEMNVGHTVLGIVTGKPVELGGSKGREEATGRGVKVCAGLAMDVLGIDPKKATVAVQGFGNVGQFAALLISQELGSKVVAVSDSRGGIYNPEGFDVEELIRYKKEHGTVVTYPKGERITNEELLELDVDILVPAALEGAIHAGNAERIKAKAVVEGANGPTTPEADEILSRRGILVVPDILANAGGVTVSYFEWVQDLQSFFWDLDQVRNALEKMMKGAFNDVMKVKEKYNVDMRTAAYILAIDRVAYATKKRGIYP [S129R T159E N118R S161E], the Tm (usually the temperature at which the thermal transition is half complete) turned out to be 88.3 °C.
Same read-out and setting: in the case of MPEKSLYEMAVEQFNRAASLMDLESDLAEVLRRPKRVLIVEFPVRMDDGHVEVFTGYRVQHNVARGPAKGGIRYHPDVTLDEVKALAFWMTWKTAVMNLPFGGGKGGVRVDPKKLSRNELERLSRRFFREIQVIIGPYNDIPAPDVNTNADVMAWYMDTYSMNVGHTVLGIVTGKPVELGGSKGREEATGRGVKVCAGLAMDVLGIDPKKATVAVQGFGNVGQFAALLISQELGSKVVAVSDSRGGIYNPEGFDVEELIRYKKEHGTVVTYPKGERITNEELLELDVDILVPAALEGAIHAGNAERIKAKAVVEGANGPTTPEADEILSRRGILVVPDILANAGGVTVSYFEWVQDLQSFFWDLDQVRNALEKMMKGAFNDVMKVKEKYNVDMRTAAYILAIDRVAYATKKRGIYP [S129R] it was 87 °C; in that of MPEKSLYEMAVEQFNRAASLMDLESDLAEVLRRPKRVLIVEFPVRMDDGHVEVFTGYRVQHNVARGPAKGGIRYHPDVTLDEVKALAFWMTWKTAVMNLPFGGGKGGVRVDPKKLSRRELERLSRRFFSEIQVIIGPYNDIPAPDVNTNADVMAWYMDTYSMNVGHTVLGIVTGKPVELGGSKGREEATGRGVKVCAGLAMDVLGIDPKKATVAVQGFGNVGQFAALLISQELGSKVVAVSDSRGGIYNPEGFDVEELIRYKKEHGTVVTYPKGERITNEELLELDVDILVPAALEGAIHAGNAERIKAKAVVEGANGPTTPEADEILSRRGILVVPDILANAGGVTVSYFEWVQDLQSFFWDLDQVRNALEKMMKGAFNDVMKVKEKYNVDMRTAAYILAIDRVAYATKKRGIYP [N118R], 88.7 °C; in that of MPEKSLYEMAVEQFNRAASLMDLESDLAEVLRRPKRVLIVEFPVRMDDGHVEVFTGYRVQHNVARGPAKGGIRYHPDVTLDEVKALAFWMTWKTAVMNLPFGGGKGGVRVDPKKLSRRELERLSRRFFREIQVIIGPYNDIPAPDVNTNADVMAWYMDEYSMNVGHTVLGIVTGKPVELGGSKGREEATGRGVKVCAGLAMDVLGIDPKKATVAVQGFGNVGQFAALLISQELGSKVVAVSDSRGGIYNPEGFDVEELIRYKKEHGTVVTYPKGERITNEELLELDVDILVPAALEGAIHAGNAERIKAKAVVEGANGPTTPEADEILSRRGILVVPDILANAGGVTVSYFEWVQDLQSFFWDLDQVRNALEKMMKGAFNDVMKVKEKYNVDMRTAAYILAIDRVAYATKKRGIYP [S129R T159E N118R], 89.6 °C.

Variants of B2 are the subject of the next series. Conditions: Paracoccus denitrificans; pH 8; Thermal; Absorbance; Tris-HCl 50 mM; NaCl 100 mM; reversible: no; whole UniProt chain shown.
In the case of MKKALIASTALLLTAGVAAADVKISGYGRTGVIYYENDSDVNESRVQSRLRMNIDASSSTDSGVDFGARFRLQWDQGEEGQAQTNAGKLWVSAQGFTVEVGNVDTAFASNGLIYETGLGSYDRSVGFSAVTGAFFAYDSNGYGIDEVNRVGIRALYTLGDLTLQASYVDPDQSGTVIGVEEEFGFSVDYTWNERLELSAAAAFNGAGIDGNDIYFLGARYAVMDNARIGLNFVDAGDEEDGYDGKTIALYGDYTLADGRTNLEAYIANNDRDSNETDNAFGIGVNYDLGGARLGASLQRDYAENVTADFGVRFEF [E81Q D148N], the Tm turned out to be 82.3 °C and the “change of melting temperature, mutant - wild type (higher = more stable)” value (“change of melting temperature, mutant” for short) was -3.9 °C.
The like results for MKKALIASTALLLTAGVAAADVKISGYGRTGVIYYENDSDVNESRVQSRLRMNIDASSSTDSGVDFGARFRLQWDQGEEGQAQTNAGKLWVSAQGFTVEVGNVDTAFASNGLIYETGLGSYDRSVGFSAVTGAFFAYDSNGYGIDEVDRVGIRALYTLGDLTLQASYVDPDQSGTVIGVEEEFGFSVDYTWNERLELSAAAAFNGAGIDGNDIYFLGARYAVMDNARIGLNFVDAGDEEDGYDGKTIALYGDYTLADGRTNLEAYIANNDRDSNETDNAFGIGVNYDLGGARLGASLQRDYAENVTADFGVRFEF [E81Q] were, in that order, 84.2 °C and -2 °C.
For the variant MKKALIASTALLLTAGVAAADVKISGYGRTGVIYYENDSDVNESRVQSRLRMNIDASSSTDSGVDFGARFRLQCDQGEEGEAQTNAGKLWVSAQGFTVEVGNVDTAFASNGLIYETGLGSYDRSVGFSAVTGAFFAYDSNGYGIDEVDRVGIRALYTLGDLTLQASYVDPDQSGTVIGVEEEFGFSVDYTWNERLELSAAAAFNGAGIDGNDIYFLGARYAVMDNARIGLNFVDAGDEEDGYDGKTIALYGDYTLADGRTNLEAYIANNDRDSNETDNAFGIGVNYDLGGARLGASLQRDYAENVTADFGVRFEF [W74C], the Tm is 82.4 °C and the “change of melting temperature, mutant” value is -3.8 °C.

In a further series the parent is B3. The conditions noted are these: Bos taurus; pH 7.1; 30 °C; GdnHCl; CD; phosphate 0.11 M; NaCl 0.04 M; structure 1B0O; whole UniProt chain shown.
For MKCLLLALALTCGAQALIVTQTMKGLDIQKVAGTYYSLAMAASDISLLDAQSAPLRVYVEELKPTPEGDLEILLQKWENGECAQKKIIAEKTKIPAVFKIDALNENKVLVLDTDYKKYLLFCMENSAEPEQSLACQCLVRTPEVDDEALEKFDKALKALPMHIRLSFNPTQLEEQCHI [W35Y], the “ddG of mutation (higher = less stable)” value stood at 6.91 kcal/mol and the unfolding free energy was found to be 4.3 kcal/mol.

A further series covers variants of B4. Conditions: Bos taurus; pH 5.5; 25 °C; Thermal; CD; sodium acetate 5 mM; reversible: Yes; structure 2ACY; whole UniProt chain shown.
Turning to MSMAEGDTLISVDYEIFGKVQGVFFREYTQAEGKKLGLVGWVQNTDQGTVQGQLQGPASKVRHMQKWLETKGSPKSHIDRASFHKEKVIVKLDYTDFKIVK [K27E E66K N85K Q98K], the “ddG of mutation (higher = less stable)” value was -1.67 kcal/mol.

The series is the same for the next values; noted with them: Bos taurus; pH 5.5; Thermal; CD; sodium acetate 5 mM; reversible: Yes; structure 2ACY; whole UniProt chain shown.
With MSMAEGDTLISVDYEIFGKVQGVFFREYTQAEGKKLGLVGWVQNTDQGTVQGQLQGPASKVRHMQKWLETKGSPKSHIDRASFHKEKVIVKLDYTDFKIVK [K27E E66K N85K Q98K], the “change of melting temperature, mutant” value turned out to be 5.4 °C.

The same series, now with this note: Bos taurus; pH 7; 25 °C; Thermal; DSC; sodium phosphate 50 mM; reversible: Yes; structure 2ACY; whole UniProt chain shown.
With MSMAEGDTLISVDYEIFGKVQGVFFREYTQAEGKKLGLVGWVQNTDQGTVQGQLQGPASKVRHMQKWLETKGSPKSHIDRASFHKEKVIVKLDYTDFKIVK [K27E E66K N85K Q98K], the “ddG of mutation (higher = less stable)” value was -1.67 kcal/mol.

Still in this series, the particulars now being: Bos taurus; pH 7; Thermal; DSC; sodium phosphate 50 mM; reversible: Yes; structure 2ACY; whole UniProt chain shown.
Turning to MSMAEGDTLISVDYEIFGKVQGVFFREYTQAEGKKLGLVGWVQNTDQGTVQGQLQGPASKVRHMQKWLETKGSPKSHIDRASFHKEKVIVKLDYTDFKIVK [K27E E66K N85K Q98K], the “change of melting temperature, mutant” value came to 5.4 °C.
